Measurements taken from FireProtDB (doi:10.1016/j.csbj.2015.03.010).

B1: Arabinogalactan endo-beta-1,4-galactanase, P48842 (parent)
chain: MFASLLLAALPLLTHAALTYRGADISSLLLLEDEGYSYKNLNGQTQALETILADAGINSIRQRVWVNPSDGSYDLDYNLELAKRVKAAGMSLYLDLHLSDTWADPSDQTTPSGWSTTDLGTLKWQLYNYTLEVCNTFAENDIDIEIISIGNEIRAGLLWPLGETSSYSNIGALLHSGAWGVKDSNLATTPKIMIHLDDGWSWDQQNYFYETVLATGELLSTDFDYFGVSYYPFYSASATLASLKTSLANLQSTYDKPVVVVETNWPVSCPNPAYAFPSDLSSIPFSVAGQQEFLEKLAAVVEATTDGLGVYYWEPAWIGNAGLGSSCADNLMVDYTTDEVYESIETLGEL

Variants of: B1
Settings: Aspergillus aculeatus; pH 4.5; Thermal; DSC; sodium acetate buffer 50 mM; transition: 2; reversible: no; structure 1FHL; whole UniProt chain shown

Variant	Tm [°C]	change of melting temperature, mutant - wild type (higher = more stable) [°C]
G120D A172R	60.7	-0.18
S201D Q204T	61	0.11
D74N	61.5	0.65
D198N	61.4	0.53
Y311F	61.2	0.34
G322A	62	1.1
